Assay results as given in the supplement of paper PMC10567573.

B1: PI4K2A (parent)
chain: FVKDPQGRIIAVFKPKNEEPYGHL

Variants of: B1
Test: protein stability index of a GFP-peptide fusion (GPS, HEK-293T) (PSI 1-6); higher = more stable
Settings: c terminus: a fixed tail appended
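Also: lentivirally expressed fusions sorted by FACS into six bins by GFP to DsRed ratio, PSI derived from sequencing read proportions per bin multiplied by bin number.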

Compared with FVKDPQGRIIYVFKPKNEEPYGHL, FVKDPQGRIIEVFKPKNEEPYGHL is higher in protein stability index: 1.32 for the first, 2.07 for the second.

First: FVKDPQGRIIKVFKPKNEEPYGHL
Second: FVKDPQGRIIRVFKPKNEEPYGHL
The protein stability index of the first is lower: 2.58 for the first, 3.16 for the second.

Going from FVKDPQGRIIGVFKPKNEEPYGHL to FVKDPQGRIIHVFKPKNEEPYGHL, the protein stability index falls from 2.72 to 1.41.

First: FVKDPQGRIIFVFKPKNEEPYGHL
Second: FVKDPQGRIILVFKPKNEEPYGHL
The protein stability index of the first is higher: 2.49 for the first, 1.61 for the second.

First: FVKDPQGRIICVFKPKNEEPYGHL
Second: FVKDPQGRIIQVFKPKNEEPYGHL
The protein stability index of the first is lower: 1.27 for the first, 3.56 for the second.

First: FVKDPQGRIIVVFKPKNEEPYGHL
Second: FVKDPQGRIIIVFKPKNEEPYGHL
The protein stability index of the first is higher: 1.63 for the first, 1.37 for the second.

First: FVKDPQGRIIPVFKPKNEEPYGHL
Second: FVKDPQGRIIWVFKPKNEEPYGHL
The protein stability index of the first is higher: 3.18 for the first, 2.88 for the second.

First: FVKDPQGRIIMVFKPKNEEPYGHL
Second: FVKDPQGRIIDVFKPKNEEPYGHL
The protein stability index of the first is lower: 2.01 for the first, 2.94 for the second.

Compared with FVKDPQMRIIAVFKPKNEEPYGHL, FVKDPQKRIIAVFKPKNEEPYGHL is lower in protein stability index: 3.42 for the first, 3.39 for the second.

First: FVKDPQRRIIAVFKPKNEEPYGHL
Second: FVKDPQFRIIAVFKPKNEEPYGHL
The protein stability index of the first is lower: 2.08 for the first, 2.74 for the second.

First: FVKDPQQRIIAVFKPKNEEPYGHL
Second: FVKDPQDRIIAVFKPKNEEPYGHL
The protein stability index of the first is higher: 2.07 for the first, 1.69 for the second.

Compared with FVKDPQVRIIAVFKPKNEEPYGHL, FVKDPQNRIIAVFKPKNEEPYGHL is higher in protein stability index: 1.73 for the first, 2.23 for the second.

Going from FVKDPQHRIIAVFKPKNEEPYGHL to FVKDPQCRIIAVFKPKNEEPYGHL, the protein stability index falls from 2.79 to 2.03.

Compared with FVKDPQWRIIAVFKPKNEEPYGHL, FVKDPQERIIAVFKPKNEEPYGHL is lower in protein stability index: 3.45 for the first, 2.98 for the second.

Going from FVKDPQPRIIAVFKPKNEEPYGHL to FVKDPQTRIIAVFKPKNEEPYGHL, the protein stability index falls from 1.81 to 1.45.

Compared with FVKDPQIRIIAVFKPKNEEPYGHL, FVKDPQARIIAVFKPKNEEPYGHL is lower in protein stability index: 3 for the first, 2.29 for the second.

Going from FVKGPQGRIIAVFKPKNEEPYGHL to FVKHPQGRIIAVFKPKNEEPYGHL, the protein stability index rises from 1 to 1.12.

Going from FVKQPQGRIIAVFKPKNEEPYGHL to FVKSPQGRIIAVFKPKNEEPYGHL, the protein stability index falls from 2.74 to 1.7.

Going from FVKCPQGRIIAVFKPKNEEPYGHL to FVKEPQGRIIAVFKPKNEEPYGHL, the protein stability index falls from 2.08 to 1.49.

First: FVKTPQGRIIAVFKPKNEEPYGHL
Second: FVKKPQGRIIAVFKPKNEEPYGHL
The protein stability index of the first is lower: 1.48 for the first, 2.28 for the second.

Compared with FVKLPQGRIIAVFKPKNEEPYGHL, FVKPPQGRIIAVFKPKNEEPYGHL is higher in protein stability index: 1.11 for the first, 1.31 for the second.

Going from FVKYPQGRIIAVFKPKNEEPYGHL to FVKFPQGRIIAVFKPKNEEPYGHL, the protein stability index rises from 2.06 to 2.21.

Going from FVKAPQGRIIAVFKPKNEEPYGHL to FVKDPQGRIIAVTKPKNEEPYGHL, the protein stability index falls from 2.86 to 1.94.

Compared with FVKDPQGRIIAVDKPKNEEPYGHL, FVKDPQGRIIAVLKPKNEEPYGHL is higher in protein stability index: 1.43 for the first, 1.96 for the second.

First: FVKDPQGRIIAVKKPKNEEPYGHL
Second: FVKDPQGRIIAVGKPKNEEPYGHL
The protein stability index of the first is higher: 1.58 for the first, 1.39 for the second.

Going from FVKDPQGRIIAVEKPKNEEPYGHL to FVKDPQGRIIAVAKPKNEEPYGHL, the protein stability index falls from 2.05 to 1.55.

Compared with FVKDPQGRIIAVSKPKNEEPYGHL, FVKDPQGRIIAVPKPKNEEPYGHL is higher in protein stability index: 1.38 for the first, 2.3 for the second.

Compared with FVKDPQGRIIAVWKPKNEEPYGHL, FVKDPQGRIIAVMKPKNEEPYGHL is lower in protein stability index: 2.13 for the first, 1.28 for the second.

Going from FVKDPQGRIIAVQKPKNEEPYGHL to FVKDPQGRIIAVVKPKNEEPYGHL, the protein stability index falls from 2.13 to 1.92.

Compared with FVKDPQGRIIAVIKPKNEEPYGHL, FVKDPQGRIIAVHKPKNEEPYGHL is lower in protein stability index: 2.5 for the first, 2.24 for the second.

Compared with FVKDPQGRIIAVYKPKNEEPYGHL, FVKDPQGRIIAVNKPKNEEPYGHL is lower in protein stability index: 2.18 for the first, 1.99 for the second.

Going from FVKDPQGRIIAVRKPKNEEPYGHL to FVKDPQGRIIAVCKPKNEEPYGHL, the protein stability index rises from 1.93 to 2.48.

Going from FVKDPQGRIMAVFKPKNEEPYGHL to FVKDPQGRINAVFKPKNEEPYGHL, the protein stability index falls from 2.51 to 2.35.

Going from FVKDPQGRILAVFKPKNEEPYGHL to FVKDPQGRIPAVFKPKNEEPYGHL, the protein stability index falls from 2.99 to 2.56.

First: FVKDPQGRISAVFKPKNEEPYGHL
Second: FVKDPQGRIGAVFKPKNEEPYGHL
The protein stability index of the first is lower: 1.97 for the first, 2.09 for the second.

Compared with FVKDPQGRIQAVFKPKNEEPYGHL, FVKDPQGRIFAVFKPKNEEPYGHL is higher in protein stability index: 1.74 for the first, 2.79 for the second.

Going from FVKDPQGRIRAVFKPKNEEPYGHL to FVKDPQGRIVAVFKPKNEEPYGHL, the protein stability index falls from 2.85 to 1.88.

First: FVKDPQGRIYAVFKPKNEEPYGHL
Second: FVKDPQGRIWAVFKPKNEEPYGHL
The protein stability index of the first is lower: 2.28 for the first, 2.88 for the second.

Going from FVKDPQGRICAVFKPKNEEPYGHL to FVKDPQGRIHAVFKPKNEEPYGHL, the protein stability index rises from 2.23 to 2.33.

Going from FVKDPQGRITAVFKPKNEEPYGHL to FVKDPQGRIDAVFKPKNEEPYGHL, the protein stability index falls from 2.09 to 1.97.

First: FVKDPQGRIAAVFKPKNEEPYGHL
Second: FVSDPQGRIIAVFKPKNEEPYGHL
The protein stability index of the first is lower: 2.15 for the first, 2.67 for the second.

Going from FVGDPQGRIIAVFKPKNEEPYGHL to FVLDPQGRIIAVFKPKNEEPYGHL, the protein stability index falls from 2.56 to 1.85.

Compared with FVYDPQGRIIAVFKPKNEEPYGHL, FVRDPQGRIIAVFKPKNEEPYGHL is higher in protein stability index: 2.01 for the first, 3.49 for the second.

First: FVWDPQGRIIAVFKPKNEEPYGHL
Second: FVEDPQGRIIAVFKPKNEEPYGHL
The protein stability index of the first is higher: 2.19 for the first, 1.42 for the second.

Going from FVCDPQGRIIAVFKPKNEEPYGHL to FVHDPQGRIIAVFKPKNEEPYGHL, the protein stability index falls from 2.7 to 1.68.

Compared with FVIDPQGRIIAVFKPKNEEPYGHL, FVPDPQGRIIAVFKPKNEEPYGHL is lower in protein stability index: 2.03 for the first, 1.91 for the second.

First: FVQDPQGRIIAVFKPKNEEPYGHL
Second: FVMDPQGRIIAVFKPKNEEPYGHL
The protein stability index of the first is lower: 1.32 for the first, 1.47 for the second.
